Measurements published in patent US20230295310A1 (ABCELLERA BIOLOGICS, published 2023).

Assays:
[1] = molecular target: T1, human CD3e/g (human, UniProt P07766 23-126; P09693 23-116); assay: SPR (Carterra LSA), mAb on chip
T1 construct: Bought soluble protein; also called hCD3e/g; human CD3e/g (Acro CDD-C52W4)
Outline: (§1)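 Purified mAbs amine-coupled (EDC/S-NHS) at 10 μg/mL in 10 mM NaOAc pH 4.25 onto an HC-30M chip, with benchmark and negative-control mAbs; analyte flowed over the array. Double-referenced sensorgrams fitted globally to a 1:1 Langmuir model for ka, kd and KD.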

[2] = molecular target: T2, human CD3e/d (human, UniProt P07766 23-126; P04234 22-105); assay: SPR (Carterra LSA), mAb on chip
T2 construct: Bought soluble protein; also called hCD3e/d; human CD3/ed (Sino CT038-H2508H)
T2 sequence (P07766 23-126, chain 1 of 2): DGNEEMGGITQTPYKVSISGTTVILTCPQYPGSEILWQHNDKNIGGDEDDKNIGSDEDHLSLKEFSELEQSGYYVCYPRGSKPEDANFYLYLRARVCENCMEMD
T2 sequence (P04234 22-105, chain 2 of 2): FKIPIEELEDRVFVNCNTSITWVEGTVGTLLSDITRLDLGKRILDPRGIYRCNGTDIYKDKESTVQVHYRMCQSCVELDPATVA
Outline: as §1

T1 sequence (P07766 23-126, chain 1 of 2): as the sequence (P07766 23-126, chain 1 of 2) above
T1 sequence (P09693 23-116, chain 2 of 2): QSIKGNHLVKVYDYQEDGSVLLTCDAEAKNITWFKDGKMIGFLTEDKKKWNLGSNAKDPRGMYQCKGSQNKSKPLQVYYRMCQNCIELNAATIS

Binder | Kd [1] [nM] | Kd [2] [nM]
mAb 54 (antibody, V domains shown, VH and VL only) VH: EVQLEESGGGLVQPGGSLRLSCAASGFTFSRYSMNWVRQAPGKGLEWFSYISSSSRTIYYADSVKGRFTMSRDNAKNSLYLQMNSLRDEDTAVYFCARGDYYDSEGMDVWGKGTTVTVSS VL: DIQMTQSPSTLSASVGDRVTITCRASQTITTWLAWYQQKPGKAPKLLIYKASTLESGVPSRFSGSGSGTEFTLTISSLQPDDFATYHCQQYKTFSYTFGQGTKLDIK | 83.2 | 553
mAb 204 (antibody, V domains shown, VH and VL only) VH: QVQLVESGGGVVQSGRSLRLSCAASGFTFSGYGMHWVRQAPGKGLEWVAIVYYDGKNKYYADSVKGRFTISRDNSKNTLYLQMNSLRAEDTAVYYCVRGEGYNWFDPWGQGTLVTVSS VL: EIVMTQSPATLSVSPGERATLSCRASQSVSSNLAWYQQKPGQVPRLLIYGASTRATGIPARFSGSGSGTQFTLTISSLQSEDFAVYYCQQYNNWPLTFGGGTKVEIK | 90 | 200
mAb 206 (antibody, V domains shown, VH and VL only) VH: QVQLVESGGGVVQPGRSLRLSCAASGFTFSGYGMHWVRQAPGKGLEWVAIIYYNGNNRKYADSVKGRFTISRDNSKNTVSLQMNSLRVEDTAIYYCTRGDGYNWFVTWGQGTLVTVSS VL: EIVMTQSPATLSVSPGERATLSCRASQSVSSNLAWYHQKPGQAPRLLIYGASTRATGIPVRFSGSGSGTEFTLTISSLQSEDFAVYYCQQYNNWPLTFGGGTKVEIK | 33 | 73
mAb 215 (antibody, V domains shown, VH and VL only) VH: QVQLVESGGGVVQPGRSLRLSCAATGFTFSGYGMHWVRQAPGKGLEWVAIIYYNGNNRKYADSVKGRFTISRDNSKNTVSLQMNSLRVEDTAIYYCTRGDGYNWFVTWGQGTLVTVSS VL: EIVMTQSPATLSVSPGERATLSCRASQSVSSNLAWYRQKPGQAPRLLIYGASTRATGIPVRFSGSGSGTEFTLTISSLQSEDFAVYYCQQYNNWPLTFGGGTKVEIK | 34 | 76
mAb 218 (antibody, V domains shown, VH and VL only) VH: QVQLVESGGGVVQPGRSLRLSCAASGFTFSGYGMHWVRQAPGKGLEWVAIIYYNGNNRKYADSVRGRFTISRDNSKNTVSLQMNSLRVEDTAIYYCTRGDGYNWFVTWGQGTLVTVSS VL: EIVMTQSPATLSVSPGERATLSCRASQSVSSNLAWYYQKPGQAPRLLIYGASTRATGIPVRFSGSGSGTEFTLTISSLQSEDFAVYYCQQYNNWPLTFGGGTKVEIK | 34 | 62
mAb 210 (antibody, V domains shown, VH and VL only) VH: QVQLVESGGGVVQPGRSLRLSCAASGFTFSGYGMHWVRQAPGKGLEWLAIIYYNGNNRKYADSVKGRFTISRDNSKNTVSLQMNSLRVEDTAMYYCTRGDGYNWFVTWGQGTLVTVSS VL: EIVMTQSPATLSVSPGERAALSCRASQSVTSNLAWYHQKPGQAPRLLIYGASTRATGIPVRFSGSGSGTEFTLTISSLQSEDFAVYYCQQYNNWPLTFGGGTKVENK | 59 | 120
mAb 226 (antibody, V domains shown, VH and VL only) VH: QVQLVESGGGVVQPGRSLRLSCAASGFTFSGYGMHWVRQAPGKGLEWVAIIYYNGNNRKYADSVKGRFTISRDNSKNTVSLQMNSLRVEDTAIYYCTRGDGYNWFVTWGQGTLVTVSS VL: EIVMTQSPATLSVSPGERATLSCRASQSISSNLAWYHQKPGQAPRLLIYGASTRATGIPVRFSGSGSGTEFTLTISSLQSEDFALYYCQQYNNWPLTFGGGTKVEIK | 32 | 75

These reach a lower Kd [1]. Values come first.

Kd [1] [nM] | Kd [2] [nM] | Binder
29 | 93 | mAb 193 (antibody, V domains shown, VH and VL only) VH: QVQLVESGGGVVQPGRSLRLSCAASGFTFSGYGMHWVRQAPGKGLEWVAIIYYNGNNRKYADSVKGRFTISRDNSKNTVSLQMNSLRVEDTAIYYCTRGDGYNWFVTWGQGTLVTVSS VL: EIVMTQSPATLSVSPGERATLSCRASQSVSSNLAWYHQKPGQAPRLLIYGASTRATGIPVRFSGSGSGTEFTLTISSLQSDDFAVYYCQQYNNWPLTFGGGTKVEIK
25 | 38 | mAb 221 (antibody, V domains shown, VH and VL only) VH: QVQLVESGGGVVQPGGSLRLSCAASGFTFSGYGMHWVRQAPGKGLEWVAIIWYNGRKTYYAESVKGRFTISRDNSKNTLSLQMNSLRVEDTAVYYCTAGQGYNWFDPWGQGTLVTVSS VL: EIVMTQSPATLSVSPGERATLSCRASQSVSSNLAWYQQKPGQAPRLLIYGASTRATGIPARFSGSGSGTEFTLTISSLQSEDFAVYYCQQFNAWPLTFGGGTKMEIK
18 | 39 | mAb 224 (antibody, V domains shown, VH and VL only) VH: QVQLVESGGGVVQPGRSLRLSCAASGFTFSGYGMHWVRQAPGKGLEWVAIIYYNGKKEYYADSVKGRFTISRDNSKNMLYLQMNGLRAEDTAIYYCTRGEGYNWFDPWGQGTLVTVSS VL: EIVMTQSPATLSVSPGERTTLSCRASQSVSNNLAWYQQKPGQAPRLLIYGASTRATGIPARFSGSGSGTEFTLTISSLQSEDFAVYYCQQYNNWPLTFGGGTKVEIK
17 | 38 | mAb 217 (antibody, V domains shown, VH and VL only) VH: QVQLVESGGGVVQPGRSLRLSCAASGFTFSGYGMHWVRQAPGKGLEWVAIIYYNGKKEYYADSVKGRFTIFRDNSKNTVYLQMKSLRAEDTAVYYCTRGEGYNWFDPWGQGTLVTVSS VL: not shown
8.4 | 13 | mAb 205 (antibody, V domains shown, VH and VL only) VH: QVQLVESGGGVVQPGKSLRLSCAASGFTFSGYGMHWVRQAPGKGLEWVAIIYYNGKKEYYADSVKGRFTISRDNSKNTLYLQMNSLRAEDTAVYYCTRGEGYNWFDPWGQGTLVTVSS VL: EIVMTQSPATLSVSPGERATLSCRASQSVSSNLAWYQQKPGQAPRLLIYGASTRATGIPARFSGSGSGTEFTLTISSLQSEDFAVYYCKQYNNWPLTFGGGTKVEIK
8.2 | 16 | mAb 222 (antibody, V domains shown, VH and VL only) VH: QVQLVESGGGVVQPGRSLRLSCAASGFTFSGYGMHWVRQAPGKGLEWVAIIYYNGKKEYYADSVKGRFTISRDNSKNTVYLQMNSLRAEDTAVYYCTRGEGYNWFDPWGQGTLVTVSS VL: KIVMTQSPATLSVSPGERATLSCRASQSVSSNLAWYQQKPGQAPRLLIYGASTRATGIPARFSGSGSGTEFTLTISSLQSEDFAVYYCKQYNNWPLTFGGGTKVEIK
6.8 | 9.3 | mAb 216 (antibody, V domains shown, VH and VL only) VH: QVQLVESGGGVVQPGRSLRLSCAASGFTFSGYGMHWVRQAPGKGLEWVAIIYYNGKKEYYADSVKGRFTISRDNSKNTLYLQMNSLRAEDTAVYYCTRGEGYNWFDPWGQGTLVTVSS VL: EIVMTQSPATLSVSPGERATLSCRASQSVSSNLAWYQQKPGQAPRLLIYGASTRATGIPARFSGSGSGTEFTLTISSLQSEDFAVYYCKQYKNWPLTFGGGTKVEIK
5.7 | 5.5 | mAb 209 (antibody, V domains shown, VH and VL only) VH: QVQLVESGGGVVQPGRSLRLSCAASGFTFSGYGMHWVRQAPGKGLEWVAIIYYNGKKEYYADSVKGRFTVSRDNSKNMLYLQMNSLRAEDTAVYYCTRGEGYNWFDPWGQGTLVTVSS VL: EIVMTQSPATLSVSPGERATLSCRASQTVSSNLAWYQQKPGQAPRLLIYGASTRATGIPARFSGSGSGTEFTLTISSLQSEDFAVYYCKQYNNRPLTFGGGTKVEIK
